Test [1] addresses T1, IRISIN protein (human recombinant IRISIN) (human, UniProt Q8NAU1 1-191).
T1 chain: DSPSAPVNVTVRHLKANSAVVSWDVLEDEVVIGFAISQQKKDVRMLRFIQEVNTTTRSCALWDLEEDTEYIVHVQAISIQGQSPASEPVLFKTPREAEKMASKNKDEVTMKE
Kind of test: BLI.

Test [2] addresses T1, IRISIN protein (human recombinant …). Kind of test: BLI.

B1: TRPC3 protein (provided by Chen Lei Laboratory, Peking University) (natural protein)
chain: MEGSPSLRRMTVMREKGRRQAVRGPAFMFNDRGTSLTAEEERFLDAAEYGNIPVVRKMLEESKTLNVNCVDYMGQNALQLAVGNEHLEVTELLLKKENLARIGDALLLAISKGYVRIVEAILNHPGFAASKRLTLSPCEQELQDDDFYAYDEDGTRFSPDITPIILAAHCQKYEVVHMLLMKGARIERPHDYFCKCGDCMEKQRHDSFSHSRSRINAYKGLASPAYLSLSSEDPVLTALELSNELAKLANIEKEFKNDYRKLSMQCKDFVVGVLDLCRDSEEVEAILNGDLESAEPLEVHRHKASLSRVKLAIKYEVKKFVAHPNCQQQLLTIWYENLSGLREQTIAIKCLVVLVVALGLPFLAIGYWIAPCSRLGKILRSPFMKFVAHAASFIIFLGLLVFNASDRFEGITTLPNITVTDYPKQIFRVKTTQFTWTEMLIMVWVLGMMWSECKELWLEGPREYILQLWNVLDFGMLSIFIAAFTARFLAFLQATKAQQYVDSYVQESDLSEVTLPPEIQYFTYARDKWLPSDPQIISEGLYAIAVVLSFSRIAYILPANESFGPLQISLGRTVKDIFKFMVLFIMVFFAFMIGMFILYSYYLGAKVNAAFTTVEESFKTLFWSIFGLSEVTSVVLKYDHKFIENIGYVLYGIYNVTMVVVLLNMLIAMINSSYQEIEDDSDVEWKFARSKLWLSYFDDGKTLPPPFSLVPSPKSFVYFIMRIVNFPKCRRRRLQKDIEMGMGNSKSRLNLFTQSNSRVFESHSFNSILNQPTRYQQIMKRLIKRYVLKAQVDKENDEVNEGELKEIKQDISSLRYELLEDKSQATEELAILIHKLSEKLNPSMLRCE
As to B1, the equilibrium dissociation constant (Kd) in test [1] came out at 32.2 nM. Besides, the koff in test [2] stood at 0.00384 s⁻¹.
